B1: MBP-120-180 calreticulin: recombinant 61 amino acid calreticulin fragment, amino acids 120-180 (Seq. I.D. No. 5), fused to MBP (protein)
chain: CGPGTKKVHVIFNYKGKNVLINKDIRCKDDEFTHLYTLIVRPDNTYEVKIDNSQVESGSLE
modifications: left off: large carriers
B2: mIL-12: murine IL-12 (Interleukin 12) (protein, UniProt P43431 23-215; P43432 23-335, looked up)
Interleukin-12 subunit alpha: RVIPVSGPARCLSQSRNLLKTTDDMVKTAREKLKHYSCTAEDIDHEDITRDQTSTLKTCLPLELHKNESCLATRETSSTTRGSCLPPQKTSLMMTLCLGSIYEDLKMYQTEFQAINAALQNHNHQQIILDKGMLVAIDELMQSLNHNGETLRQKPPVGEADPYRVKMKLCILLHAFSTRVVTINRVMGYLSSA
Interleukin-12 subunit beta: MWELEKDVYVVEVDWTPDAPGETVNLTCDTPEEDDITWTSDQRHGVIGSGKTLTITVKEFLDAGQYTCHKGGETLSHSHLLLHKKENGIWSTEILKNFKNKTFLKCEAPNYSGRFTCSWLVQRNMDLKFNIKSSSSSPDSRAVTCGMASLSAEKVTLDQRDYEKYSVSCQEDVTCPTAEETLPIELALEARQQNKYENYSTSFFIRDIIKPDPPKNLQMKPLKNSQVEVSWEYPDSWSTPHSYFSLKFFVRIQRKKEKMKETEEGCNQKGAFLVEKTSTEVQCKGGNVCVQAQDRYYNSSCSKWACVPCRVRS

Experiments:
[1] = tested on: bFGF-induced neovascularization; test: Murine Matrigel assay of angiogenesis in vivo; design: species or system BALB/c nude mice; details: Exp. 4; concentration not given; bFGF 150 ng/ml
Description: The murine Matrigel assay (Passaniti et al., Lab. Invest. 67:519-528, 1992) was employed to evaluate the effects of calreticulin and calreticulin fragments on angiogenesis in vivo. The Matrigel assay was performed as described by Angiolillo et al. (J. Exp. Med. 182:155-162, 1995). Matrigel, a crude extract of the Englebreth-Holm-Swarm tumor, was obtained from Collaborative Biomedical Products, Becton Dickinson Labware, Bedford, Mass. An aliquot (0.5 ml) of Matrigel alone or with desired additives was injected subcutaneously (s.c.) into the mid abdominal region of female BALB/c nude mice, 6-8 weeks old. Five mice were injected with each mixture. After 5-7 days, the animals were sacrificed, Matrigel plugs were removed, fixed in 10% neutral buffered formalin solution (Sigma), and embedded in paraffin. Tissues were sectioned (5μ thickness), and slides stained with Masson's trichrome. Quantitative analysis of angiogenesis in Matrigel plugs utilized a computerized semi-automated digital analyzer (Optomax, 40-10 System, Hollis, N.H.). The instrument was adjusted to evaluate a circular area measuring […] of Matrigel, and within this area, to measure the area occupied by cells. For each plug, 12-15 distinct fields were evaluated. The fields were randomly selected from each plug, and the operator was blind to the experimental design. The average area occupied by cells/1.26×10^5 […] Matrigel field was calculated. Results are expressed as the mean area occupied by cells/Matrigel field.
Matrigel plugs were fixed in 10% neutral buffered formalin solution (Sigma), embedded in paraffin, sectioned at 4 μm, and stained with Masson's trichrome by standard methods.

[2] = tested on: human Burkitt lymphoma cells (CA46 cell line); test: Prevention of human Burkitt lymphoma growth in athymic mice; type: in vivo, BALB/c athymic mice; details: 4×10^6 CA46 cells; 75 μg/day, 6 days/week, 42 days
Description: FIGS. 6A, 6B, 6C and 6D are graphs showing the inhibition of tumor growth by vasostatin (Seq. I.D. No. 4) and calreticulin (Seq. I.D. No. 3). Burkitt lymphoma cells (CA46 cell line, 1×10^7 cells) were inoculated subcutaneously (s.c.) into BALB/c athymic mice, 6 weeks of age. Beginning on the day of cell inoculation and continuing thereafter daily, 6 days/week, mice were inoculated s.c. with either control buffer (open symbols) or test protein (closed symbols). The results reflect the % mice with tumor as a function of time. A. 12 mice were inoculated with control purified GST protein (Seq. I.D. No. 2; 20 μg/day×14 days), and 13 mice were inoculated with purified GST-calreticulin ([…]; 60 μg/day×14 days). […]
BALB/c nu/nu female mice, 6 weeks of age (National Cancer Institute, Frederick, Md.) maintained in pathogen-limited conditions, received 400 rad (1 rad=0.01 Gy) total body irradiation and 24 hours later were injected s.c. in the right abdominal quadrant with 10^7 exponentially growing human Burkitt lymphoma cells (CA46 cell line; Sgadari et al., Proc. Natl. Acad. Sci. U.S.A. 93:13791-13796, 1996) in 0.2 ml PBS. […] A subcutaneous mass appearing at or proximal to the site of cell inoculation was considered a tumor when it measured at least 0.16 cm^2 in surface area and increased in size by at least 0.1 cm^2 over the following week. […]

[3] = tested on: peptides KLGFFKR, KAFFKR and KVFFKR coupled to CNBr-activated Sepharose; test: Affinity column binding to integrin / steroid receptor motif peptides; details: elution with 20 mM EDTA
Description: FIG. 18 is a Western blot analysis of fractions obtained through affinity purification over a column containing KXaa1FFXaa2R (Seq. I.D. No. 11) and KXaa1GFFKR (Seq. I.D. No. 10). Purified supernatants from the VDS-0 cell line containing full length calreticulin and N-terminal fragments of calreticulin were affinity purified over a mixture of peptides KLGFFKR (Seq. I.D. No. 13), KAFFKR (Seq. I.D. No. 33) and KVFFKR (Seq. I.D. No. 32) coupled to CNBr-activated Sepharose. Starting material (lane 1), unbound material (lanes 2, 3) and bound material (lanes 4, 5) were separated by SDS-PAGE, transferred to nitrocellulose, and subsequently stained with a rabbit antiserum against human calreticulin.
To this end, purified preparations of the VDS-O cell line containing full length calreticulin (Seq. I.D. No. 3) as well as N-terminal calreticulin fragments were prepared and tested to determine how these components were retained over an affinity column. To prepare the affinity column, three peptides were synthesized ([…], Seq. I.D. 13; KAFFKR, Seq. I.D. No. 33; and KVFFKR, Seq. I.D. No. 32), purified, and coupled to CNBr-activated Sepharose 4B (Pharmacia). First, the ability of calreticulin, purified from the culture supernatant of the lymphoblastoid cell line VDS-O, to selectively bind to the column and be eluted by a buffer solution containing 20 mM EDTA and 100 mM NaCl, was verified. […]

[4] = tested on: Fetal bovine heart endothelial cells
Description: Fetal bovine heart endothelial cells (American Type Culture Collection, ATCC, Manassas, Va.) were grown through passage 12 in DMEM culture medium (BioWhittaker, Walkersville, Md.) containing 10% heat inactivated fetal bovine serum (BioWhittaker), 100 ng/ml bFGF (R&D Systems, Minneapolis, Minn.), and 5 μg/ml gentamicin (Sigma). For proliferation assays, cells were trypsinized (Trypsin/EDTA, Gibco BRL), washed, suspended in culture medium (DMEM containing 10% heat inactivated fetal bovine serum and 5 μg/ml gentamicin), plated (800 cells/well in 0.2 ml culture medium) in triplicate onto 96 well plates, and incubated for 5 days.

[5] = tested on: human Burkitt lymphoma cell line CA46; test: Combination of vasostatin and IL-12 on human Burkitt lymphoma in nude mice; type: in vivo, BALB/c nude mice; details: both experiments; MBP-vasostatin 100 μg/day, mIL-12 100-200 ng/day s.c.
Description: Athymic BALB/c nude mice received 400 rad total body irradiation and 24 hours later were inoculated (4×10^6 cell/mouse) with the human Burkitt lymphoma cell line CA46. A and B. 5 days after cell inoculation the established tumors were treated with daily s.c. inoculations (6 days/week) of either formulation buffer alone (closed circles), MBP-vasostatin alone (Seq. I.D. No. 4; 100 μg/day; open squares), mIL-12 alone (200 ng/day for 8 days followed by 100 ng/day; open circles), or the combination of MBP-vasostatin (Seq. I.D. No. 4) and mIL-12 (same dose used as single agents; open triangles). All mice were sacrificed after 15 days of treatment. C and D. 1 day after cell inoculation, s.c. treatment with MBP-vasostatin (Seq. I.D. No. 4; 100 μg/day; 6 days/week) or formulation buffer was started; s.c. treatment with IL-12 (100 ng/mouse; 6 days/week) was started 2 days later in mice that had received buffer alone or MBP-vasostatin (Seq. I.D. No. 4). Therefore, four groups of mice were tested: Mice receiving buffer alone (closed circles); MBP-vasostatin alone (open squares); IL-12 alone (open circles); and MBP-vasostatin plus IL-12 (open triangles). The mice received 7 days treatment with MBP-vasostatin (Seq. I.D. No. 4) and 5 days treatment with IL-12, and were observed untreated for 14 days at which time all mice were sacrificed. […]

| Molecule | Inhibition (%) [1] [%] | Mean Surface Area Occupied by Cells [1] | rate of Burkitt tumor growth compared to controls [2] | binding to peptide affinity column [3] | inhibition of fetal bovine heart endothelial cell proliferation ([4]; 0.5 μg/ml, bFGF-induced) [%] | endothelial cell growth inhibitory activity in vitro, side-by-side comparison on a molar basis ([4]; 0.4-32 nM, bFGF 15 ng/ml, 5 days) | rate of tumor growth and mean weight of tumors compared with formulation buffer [5] |
| --- | --- | --- | --- | --- | --- | --- | --- |
| B1 | 70 | 2,458 mm^2/1.26 × 10^5 mm^2 | significantly reduced | failed to bind | 65 | similar |  |
| B2 |  |  |  |  |  |  | reduced |

Reference: US6867180B1, “Use of calreticulin and calreticulin fragments to inhibit endothelial cell growth and angiogenesis, and suppress tumor growth” (The United States of America as represented by the …, priority 1998, dated 2005)
